The subject of this series is CCCC(=O)Oc1ccc([N+](=O)[O-])cc1. In words: purified protein. The following applies: pH 8.0; 25.0 °C.

SfDLH (Solimonas fluminis): the Km came to 160 µM.

Values taken from doi:10.1101/2025.10.30.685675v2.
